Measurements: patent publication US5432264A (priority 1987, dated 1995)
Where two headings read alike, the source gives them in different places. Peptide text beside a SMILES is read from it. * marks the point of attachment. Cbz = O=C(OCc1ccccc1)*; CHN2 = [N-]=[N+]=C*

Assays:
[1] = test system: herpes simplex virus type 1 (HSV); assay type: cell-based
[2] = test system: poliovirus (Mahoney strain); assay type: cell-based, poliovirus type 1; conditions: for effect on poliovirus replication (in words): inhibitor added to cultivation medium; for Virus Yield: poliovirus type 1, multiplicity 1, 48 hrs at 37° C.
[3] = test system: HSV type 1 (F strain); assay type: cell-based; conditions: for Virus Yield: 48 hrs at 37° C.
[4] = test system: poliovirus type 1; assay type: cell-based; conditions: 24 μg per disc, green monkey kidney cells infected with poliovirus type 1
[5] = test system: papain; assay: Papain-inhibiting capacity by titration of active papain, substrate Z-Phe-Arg-NHMec; assay type: biochemical; conditions: papain-inhibiting capacity relative to molar cystatin C concentration; range over several preparations
Description: The papain-inhibiting capacity of recombinant 3-des-OH-cystatin C was compared with the corresponding activity of human cystatin C.
The human cystatin C was isolated from urine of patients with mixed glomerular-tubular proteinuria by ultrafiltration, ion-exchange chromatography and gel filtration as described in literature (ref. 2,3) and lyophilized. A total of ten different preparations of human cystatin C and 3-des-OH-cystatin C were tested for their cystein proteinase inhibitory capacity. The cystatin C and 3-des-OH-cystatin C preparations derived from human urine and recombinant technique, respectively, were individually dissolved in 0.15 mol/l ammonium bicarbonate. Cystatin C concentrations of the resulting solutions were determined by phys-ico-chemical and immuno-diffusion and quantitation of amino acids released at hydrolysis in 6 mol/l HCl). The cysteine proteinase inhibiting capacities of these solutions were determined by adding them to a solution of isolated papain (cf. ref. 4), a plant cysteine proteinase widely used as a model for cysteine proteinases in general, and then determining the residual proteolytic activity of the resulting mixtures.
The cysteine proteinase activities of the papain solution and the cystatin C-papain mixtures were determined using the fluorogenic substrate Z-Phe-Arg-NHMec (ref. 5). […]

[6] = target: cathepsin B (EC 3.4.22.1); assay: Equilibrium constant for dissociation of inhibitor-enzyme complex, cathepsin B; assay type: binding
Description: (§1) Biological activity of 3-des-OH-cystatin C was determined through titration against concentration determined papain. The strength of binding 3-des-OH-cystatin on the cystein proteinases papain (EC 3.4.22.2), cathepsin B (EC 3.4.22.1) and dipeptidyl peptidases I (F.C 3.4.14.1) was determined. The equilibrium constant for dissociation of 3-des-OH-cystatinC enzyme complex (0.005 nM, 0.50 nM and 3.1 nM) was within the experimental error limit identical with the equilibrium constant for human cystatin C enzyme complex (<0.005 nM, 0.27 nM and 6.3 nM For papan, cathepsin B and dipeptidyl peptidases I, respectively).

[7] = target: dipeptidyl peptidases I (F.C 3.4.14.1); assay: Equilibrium constant for dissociation of inhibitor-enzyme complex, dipeptidyl peptidase I; assay type: binding
Description: as §1

Molecule: CC(C)C[C@H](NC(=O)OCc1ccccc1)C(=O)N[C@H](C(=O)NCC(=O)C=[N+]=[N-])C(C)C [Z-LVG-CHN2, N-benzyloxycarbonyl-leucyl-valyl-glycine diazomethyl ketone, reference compound] (Cbz-Leu-Val-Gly-CHN2)
- inhibition of plaque formation around disc [1]: marked inhibition zones
- effect on poliovirus replication (in words) [2]: hardly significant
- Virus Yield ([2]; 0.4 mM Z-LVG-CHN2 in 1% DMSO): 4.8 × 10^7 pfu/ml
- inhibition of HSV replication [3]: > 99.9
- Virus Yield [3]: 1.4 × 10^3
- inhibition of plaque formation around disc [4]: no inhibition of plaque formation

B1: 3-des-OH-cystatin C: Recombinant 120 amino acid human cystatin C with non-hydroxylated Pro at position 3, expressed in E. coli (protein, UniProt P01034 27-146, looked up)
Cystatin-C: SSPGKPPRLVGGPMDASVEEEGVRRALDFAVGEYNKASNDMYHSRALQVVRARKQIVAGVNYFLDVELGRTTCTKTQPNLDNCPFHDQPHLKRKAFCSFQIYAVPWQGTMTLSKSTCQDA
modifications: non-hydroxylated Pro3
notes: Recombinant 120 amino acid human cystatin C with non-hydroxylated Pro at position 3, expressed in E. coli
- molar inhibitory capacity [5]: 83-98%
- Kd [6]: 0.5 nM
- effect on poliovirus replication (in words) [2]: no influence on the replication of poliovirus
- Virus Yield ([2]; 0.10 mM cystatin C in MEM): 1.1 × 10^8 pfu/ml
- effect on HSV replication (in words) [3]: potent inhibitor of HSV replication
- Virus Yield [3]: 2.4 × 10^3
- Kd [7]: 3.1 nM

B2: human cystatin C: Native cystatin C isolated from human urine; mixture of 3-OH-Pro form and 3-des-OH form (protein, UniProt P01034 27-146, looked up)
Cystatin-C: B1 Cystatin-C
- molar inhibitory capacity [5]: 5-55%
- Kd [6]: 0.27 nM
- Kd [7]: 6.3 nM
